Test results reported in the RNAGym collection of RNA variant scans (doi:10.1073/pnas.2313332121).
Fewer inactive variants are shown than the library holds.

B1: TPR 5TU (parent)
chain: GGAUCUUCUCGAUCUAACAAAAAAGACAAAUCUGCCACAAAGCUUGAGAGCAUCUUCGGAUGCAGAGGCGGCAGCCUUCGGUGGCGCGAUAGCGCCAACGUUCUCAACUAUGACACGCAAAACGCGUGCUCCGUUGAAUGGAGUUUAUCAUG

Variants of: B1
Experiment: polymerase ribozyme fitness, log enrichment relative to wild type (log ratio); higher = more active; in vitro selection for triplet polymerase activity
Summary of the method: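 After PCR construction and transcription, each subunit's mutant library from a heterodimeric triplet polymerase ribozyme was annealed with a biotinylated primer, the partner subunit and triplets. Incubation was frozen, at −7 °C, and extended constructs were gel-excised, bound to streptavidin beads and amplified by RT-PCR, in one selection round done in triplicate. Fitness is the logarithm of a genotype's enrichment divided by that of the wild type, from inverse-variance-weighted replicate averages of Illumina-sequenced inputs and outputs. The base of the logarithm is 2, and genotypes needed ≥10 input reads and ≥1 read per output.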

Point of comparison: U33G, “polymerase ribozyme fitness (log ratio)” value -2.4. Against it:
- C57U C85U U146G — higher, -1.44
- G50A C79U A138G — lower, ≤ -4.2
- C5U U82A C103G A113U A137C U148A — lower, ≤ -4.2
- C43A U44A A91U G141U A150C — lower, ≤ -4.2
- G140U G141C — lower, -3.07
- A47C C57U C79A G94A U151G — lower, ≤ -4.2
- G25C C27U U45C G71U U82A G83A G92U — lower, ≤ -4.2
- G58C A60G G92A A121U — within 0.2 log units, -2.24
- C18G A28U A66U G94U C95A — lower, ≤ -4.2
- G48A G67U G84U C105G — lower, ≤ -4.2
- C14G G50C C51U C79U C85A C125A — lower, ≤ -4.2
- A12G C63U G83C C95U U109A — higher, -2.16
- C8A U53A — lower, -3.45
- A21C C32G A37U A49G C57U C75G G84A A107C A147U — lower, ≤ -4.2
- C51U A52G C76A A89G A97C C105U A119C G141U — lower, ≤ -4.2
- A49U C76A U77G C95G C96U C108U A142G — lower, ≤ -4.2
- G48C C99U C105G — lower, ≤ -4.2
- A17U A40G C54U G83A A91C G126C — lower, ≤ -4.2
- A12U G42C C72G C76A A91U A120U U144C — lower, ≤ -4.2
- U53C G58C C93U C96G G140A — lower, -4.1
- C32U A37U U56C C95U U145G U148G — lower, ≤ -4.2
- C10G C85G G92A C125G — lower, ≤ -4.2
- U33A U45A G68U C87A U127C A137U — lower, ≤ -4.2
- G11A C96U — higher, -1.9
- U53A G62C G84A G136A — lower, -3.58
- C8U G11C A23C A60G G94U G136U U144A — lower, ≤ -4.2
- C114A G140A U148G — lower, ≤ -4.2
- C57G G70A C87U C123A — lower, ≤ -4.2
- A3C C79U C93U C95U — lower, ≤ -4.2
- G34A G46A C76G G136A U144A — lower, ≤ -4.2
- C69A C76G C79A U102A G141C — lower, ≤ -4.2
- A37U U55A A91G A98U U148A — lower, ≤ -4.2
- A21G C116G — higher, 1.2
- A66C C76U A91U A97U C114U A142G — lower, ≤ -4.2
- G50U G81A C96G A142U — within 0.2 log units, -2.59
- G71C U102G G133C G141C — lower, ≤ -4.2
- A22C A60G C87U — higher, 0.179
- A17C U55G C57A G59C C85A A115G A119U — within 0.2 log units, -2.46
- A24C G67A G92U — lower, ≤ -4.2
- A47C C54A C76U C85G A106U G143C — lower, ≤ -4.2
- A52U C96U G100A A147C — lower, ≤ -4.2
- G11C A23C G58A G81C C87A A138U — lower, ≤ -4.2
- G34C G88U U144A — lower, ≤ -4.2
- C14G A20C A40C A89C — lower, -4.13
- C14U A21G C38G C57A C79U A138C U148C — lower, ≤ -4.2
- G11A U56A C76U U111C U148A — lower, ≤ -4.2
- G50C G58A — higher, -1.56
- G68U G136A — lower, -3.9
- A12C C87A U130C — lower, ≤ -4.2
- C87U G141A — higher, -0.85
- G25C U61A C75G A91G A97U — lower, -4.05
- A23G U44A U56A — lower, ≤ -4.2
- A16C A66U A122C U139A A142U — lower, ≤ -4.2
- C14G U56A A73G U135C — lower, -4.12
- G46C C75G G88A C114U — lower, ≤ -4.2
- G83U U101A A115U G117U — lower, ≤ -4.2
- A24U A41U G62C G70C C85G G152A — lower, ≤ -4.2
- U15G C129A — within 0.2 log units, -2.55
- A29U A40C G46A G67A G81A C85G A113C A137G — lower, ≤ -4.2
- U78A C93U — lower, ≤ -4.2
- G48C C85U — higher, -1.95
- A47G G50A A52U C63A A142C — lower, ≤ -4.2
- G71U C85G U134G U139G — lower, ≤ -4.2
- A40U U56A C75G — lower, -3.97
- C96A U145A — higher, 0.431
- A29G C103G U104G — lower, ≤ -4.2
- G143A U145A — higher, -2.03
- A40C U55G G84C C96U C103U C118U — lower, -3.51
- U7G C27U G48C G59C C76U C79A G83U C93A — lower, ≤ -4.2
- A12G C63U U134A — within 0.2 log units, -2.26
- A39U U55A G59U G117A A121U — higher, -1.11
- C14G A47C C54G U56A C93A C108U G124U G128A — lower, ≤ -4.2
- U13G U111G — lower, ≤ -4.2
- A20U G67U C116G — lower, ≤ -4.2
- A19U C35G C57U U90C C96A C132U — lower, ≤ -4.2
- A30G C85U G128A — lower, ≤ -4.2
- C57A A122C — higher, -0.0129
- G86U C118U A119G — lower, -4.19
- G67A G86A — lower, -3.58
- G86C C87G C108G — lower, ≤ -4.2
- C14G A20C G92C C125G — lower, -3.88
- G59U A107U U127A — lower, ≤ -4.2
- C51A A52G G68A A142C U144A — lower, ≤ -4.2
- A47U C95U A115G — lower, -2.68
- C75U U82C C116A — higher, 0.695
- A16G U33G C95G — lower, ≤ -4.2
- U7C U15G A41U A52G C96A — lower, -3.52
- A16C C57A G94A C116U G124A A142U — lower, -3.92
- A21C U45A A64G G92A — lower, -3.46
- A40U — higher, 0.097
- A60G C96A A121U — higher, -0.437
- A119U G126A U135C G141C — lower, -3.75
- C54A A91U U109C G140U U146C — lower, ≤ -4.2
- C8U A17G A21U C57U G80A C96G — lower, ≤ -4.2
- C36U A107G U151A — lower, ≤ -4.2
- A28U G58C C96A A97G U144A U145G — lower, ≤ -4.2
- A29U G71C C93U U109G G124C — lower, ≤ -4.2
- G58A U61G — higher, -1.49
- C75U G84U C99U A115C — lower, -3.35
- U55A A64G U135A — lower, ≤ -4.2
- U4G G11C U44G — lower, ≤ -4.2
- C93U A137G C149U — within 0.2 log units, -2.47
- C5A C93G — within 0.2 log units, -2.32
- C5A C27U U55G G83A G92U U148A — lower, ≤ -4.2
- A26G C32G A64G C103A — lower, ≤ -4.2
- A20U A49U C93G C103U — lower, ≤ -4.2
- A22G U44A C85A — lower, ≤ -4.2
- A21U A23U A29C C35G G48A — lower, ≤ -4.2
- A138C A142G — lower, -3.66
- C57U G86A A120G G141C — lower, -2.82
- A98U A147C — higher, 0.168
- C32U G59C A89C G94C — lower, -3.87
- A41U G88A C95G A106C A120G — lower, ≤ -4.2
- G92A A97G A122U U148C — lower, -3.63
- G11A A39U — lower, -3.28
- A39U U61A A64C G86C — lower, ≤ -4.2
- C103A A107C A142C — lower, ≤ -4.2
- A60C G92U — higher, -0.296
- U53A G59A C85A G88A U151A — lower, ≤ -4.2
- C38A G50U — higher, -0.722
- G80A C93G C96U — lower, -3.96
- G92C U135C — lower, -2.88
- U15G U31G A40U C57A C95G C125U G140U — lower, ≤ -4.2
- U56A C96A A138G — lower, ≤ -4.2
- A22U G50U C96A G136C A142G — lower, ≤ -4.2
- A17U G94C C95U C105U — higher, -0.248
- C8U G67A U82G U90G C96A C105A C116A C125U U135A A147C U148G — lower, ≤ -4.2
- U6A A20U C27U G46A C87A — lower, ≤ -4.2
- A22U G80A — higher, 0.375
- G62A C103U — higher, -1.66
- A12U A21U C87G C99U C125U — lower, ≤ -4.2
- A17G C18G A64G C85A G100A A106U A119U — lower, ≤ -4.2
- A91G C108U C116G G152A — lower, -3.48
- U44A A49C C93U C123G U130G — lower, ≤ -4.2
- C14G U55A C96U — lower, -3.27
- A26U G92A — lower, -3.86
- U6A C14U U82C G86A — lower, -4.09
- U13A A22U A89G C95A — higher, -1.67
- C5A G11C C85U A119C C131G G141C — higher, 0.451
- G50C A120U A121C — lower, -2.61
- G46A G83A — higher, -0.911
- G50C U56A G59C — lower, -3.03
- C54A G86U A110C — lower, ≤ -4.2
- U13C C54U C87U — higher, -1.35
- A47U A49C C51U C93A — lower, ≤ -4.2
- U56A U78A C79A — lower, ≤ -4.2
- C85A A97U G152A — lower, ≤ -4.2
- A23U A119G A120U G152A — lower, ≤ -4.2
- A20U A26U A29U G46A A49C A106U — lower, ≤ -4.2
- C5A A22U C75U C76A G88A A89C A91G C105U A119G U144G — lower, ≤ -4.2
- C38G C95A A150U — higher, -0.802
- U31C G71A G86C C118A U151G — lower, ≤ -4.2
- A52G A60G C85A C95G A97G U102A C125A — lower, ≤ -4.2
- A120C G141C — higher, -0.144
- C85U A120G — higher, -1.65
- C8G A52U C95U U104G G140U — lower, ≤ -4.2
- G59C C76A C87G — lower, ≤ -4.2
- A20G U77A C85U C105U U135A A138G — lower, ≤ -4.2
- A26C A52C C54A C114A C129G U134A — lower, ≤ -4.2
- A66G C85U — lower, -3.45
- C38U G81A C87G C95U C96A A97G A138C G141U — lower, ≤ -4.2
- G11C C38A G59A C125G — within 0.2 log units, -2.58
- U9G A52G G71A A73G G128U G143U — lower, ≤ -4.2
- C38U G59C G81C C95G C116G — higher, -1.71
- C51U U55A C75A C85U U101A C114U A115G G124A — lower, ≤ -4.2
- C14A U82A G92A — lower, ≤ -4.2
